Measured values taken from paper PMC2917355, “Characterization of a Temperature-Sensitive Vertebrate Clathrin Heavy Chain Mutant as a Tool to Study Clathrin-Dependent Events In Vivo” (PLoS ONE, 2010).
Changes are numbered by the printed parent chain. In names and notes the source's numbering stands.

Molecular target: the molecule itself
Assay: cross-linking; 1 µM clathrin hub fragment (wild type or TS-mutant) in PBS with 10 mg/l BS3 for 5 min at temperatures from 26 to 47°C; SDS-PAGE with silver stain or anti-His-tag Western blot

B1: human clathrin heavy chain wild type hub fragment (domain or fragment, UniProt Q00610 1074-1675, looked up)
chain: KFDVNTSAVQVLIEHIGNLDRAYEFAERCNEPAVWSQLAKAQLQKGMVKEAIDSYIKADDPSSYMEVVQAANTSGNWEELVKYLQMARKKARESYVETELIFALAKTNRLAELEEFINGPNNAHIQQVGDRCYDEKMYDAAKLLYNNVSNFGRLASTLVHLGEYQAAVDGARKANSTRTWKEVCFACVDGKEFRLAQMCGLHIVVHADELEELINYYQDRGYFEELITMLEAALGLERAHMGMFTELAILYSKFKPQKMREHLELFWSRVNIPKVLRAAEQAHLWAELVFLYDKYEEYDNAIITMMNHPTDAWKEGQFKDIITKVANVELYYRAIQFYLEFKPLLLNDLLMVLSPRLDHTRAVNYFSKVKQLPLVKPYLRSVQNHNNKSVNESLNNLFITEEDYQALRTSIDAYDNFDNISLAQRLEKHELIEFRRIAAYLFKGNNRWKQSVELCKKDSLYKDAMQYASESKDTELAEELLQWFLQEEKRECFGACLFTCYDLLRPDVVLETAWRHNIMDFAMPYFIQVMKEYLTKVDKLDASESLRKEEEQATETQPIVYGQPQLMLTAGPSVAVPPQAPFGYGYTAPPYGQPQPGFGYSM
notes: Clathrin heavy chain, human, C-terminal 'hub' fragment involved in trimerization; The PCR primers encode KFDVNTS... at the start (after a BamHI site) and ...GFGYSM followed by the stop codon at the end (before a HindIII site); Cloned in pET28a between BamHI and HindIII with its own stop codon, so the His tag is probably N-terminal (surmised); also called clathrin-hub fragment; hub fragment (wild …)
binding result: binds

B2: human clathrin heavy chain TS-hub fragment (E1584K) (domain or fragment, UniProt Q00610 1074-1675, looked up)
chain: B1 chain with E511K
notes: Clathrin heavy chain, human, C-terminal 'hub' fragment amplified from the TS-clathrin (E1584K) cDNA; The PCR primers encode KFDVNTS... at the start and ...GFGYSM followed by the stop codon at the end; Same construct as m1 but with the temperature-sensitive point mutation E1584K. pET28a, so the His tag is probably N-terminal (surmised); also called clathrin hub fragment TS-mutant; pET28a human …
binding result: binds
